Assays:
[1] = biological target: the molecule itself; experiment: crystal structure; FliLC crystal, space group P6(1), 2.1 Å, two molecules in the asymmetric unit; sitting drop at 20°C, protein 10 mg/ml in 20 mM Tris-HCl pH 8.0, 150 mM NaCl; reservoir 0.1 M sodium acetate pH 4.4, 22.5% PEG 4000, 0.2 M ammonium sulfate
[2] = biological target: the molecule itself; experiment: crystal structure; FliLPeri crystal, space group P4(2)2(1)2, 3.4 Å, 20 molecules in the asymmetric unit; sitting drop at 20°C, protein 70 mg/ml in 20 mM Tris-HCl pH 8.0, 150 mM NaCl; reservoir 0.1 M sodium acetate pH 6.0, 25% PEG 200, 0.15 M CaCl2, 1.4% EtOH

Row | Protein | binding result [1] | stoichiometry N [2] [subunits in a ring]
1 | FliLC, trypsin-resistant core of the periplasmic region of polar FliL (residues 58 to 167) (domain or fragment, Vibrio alginolyticus, UniProt A0A7H8DP68 58-167, looked up, polar flagellar FliL of Vibrio alginolyticus, fragment of residues 58 to 167 left after trypsin digestion of FliLPeri; also called FliL_(58-167)) ASDAAPIAYVNLPQAFVFNVTGDSRDRLVQIKAQLMVRGAENEELARYHSPLIESSMLSTFASATVDQLRSPTGRVELRDRASEDIKAALNAAVGKPVIEKVLFTDFVIQ | binds | 
2 | periplasmic region of polar FliL (FliLPeri) of Vibrio alginolyticus (domain or fragment, UniProt A0A7H8DP68 41-167, looked up, polar flagellar FliL of Vibrio alginolyticus, periplasmic region, residues 41 to 167; Residues 41-57 are invisible in the map; also called His6-FliL_(Peri); copies: 10) GSDEPAQAESSQQAQVKASDAAPIAYVNLPQAFVFNVTGDSRDRLVQIKAQLMVRGAENEELARYHSPLIESSMLSTFASATVDQLRSPTGRVELRDRASEDIKAALNAAVGKPVIEKVLFTDFVIQ |  | 10

— PMC6426602, “Structure of Vibrio FliL, a New Stomatin-like Protein That Assists the Bacterial Flagellar Motor Function” (mBio, 2019)
